Measurements: the nanobody polyreactivity screen of Harvey et al. (2022)

Assay: yeast display, Sf9 membrane polyspecificity reagent, FACS + sequencing; frameworks hold sequencing errors
Method in brief: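 Galactose-induced (36–48 hours) yeast carrying a synthetic nanobody display library were exposed to 10% biotinylated, detergent-solubilized Sf9 membrane reagent at 4 °C for 1 hour. FACS followed streptavidin microbead enrichment, using low and high (top ~1%) gates for expression (anti-HA) and reagent binding (streptavidin). Colony PCR, MiSeq 2 × 250 sequencing and CDR-length filtering followed. Labels for polyreactivity reflect the gate of origin.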

Sequence | polyreactivity (PSR sort gate)
QVQLVESGGGLVQAGGSLRLSCAASGFIFPYYAMGWYRQAPGKERELVAANSRRGTSTFYADSVKGRFTISRDNAKNNVYLQMNSLKTEDTAVYYCNAEYGIGDDSWVQGTQVTVSS | high polyreactivity
QVQLVESGGGLVQAGGSLRLSCAASGFIFQANAMGWYRQAPGKERELVAAIDDGDSTYADSVKGRFTISRDNAKNTVYLQMNSLKPEDTAVYYCATRRNRSYDYWGQGTQVTVSS | low polyreactivity
QVQLVESGGGLVQAGGSLRLSCAASGFIFQGYARGWYRQAPGKERELVATISKSGGSTYYADSVKGRFTISRDTAKNTVYLQMTSLKPEDTAVYYCNARPGQSGARFGYWGQGTQVTVSS | high polyreactivity
QVQLVESGGGLVQAGGSLRLSCAASGFIFQKYAMGWYRQAPGKERELVAAISRSGGSTYYADSVKGRFTISRDNAKNTDYLQMNSLKPEDTAVYYCAARYKGRAFWMDYWGQGTQVTVSS | high polyreactivity
QVQLVESGGGLVQAGGSLRLSCAASGFIFQPYAMGWSRQAPGKERELVAAITSRGGRTYYADSVKGRFTISRDNAKNTVYLQMNSLKPEDTAVYYCNADIYASEYYYWGQGTQLTVSS | low polyreactivity
QVQLVESGGGLVQAGGSLRLSCAASGFIFQTNVMGWYRQAPGKERELVAAISSGDSTYYADSVKGRFTISRDNAKNTVYLQMNSLKPEDTAVYYCAADSIRTLLTGNTVYIWYGYWGQGTQVTVSS | low polyreactivity
QVQLVESGGGLVQAGGSLRLSCAASGFIFQWYAMGWYRQAPGKERELVAAISIGDSTYYADSVKGRFTISRDNAKNTVYLQMNSLKPADTAVYFCNADPWGYYSVIPLYEYDYWGQGTQVTVSS | low polyreactivity
QVQLVESGGGLVQAGGSLRLSCAASGFIFQWYAMGWYRQAPGKERELVAAISIGDSTYYADSVKGRFTISRDNAKNTVYLQMNSLKPEDTAVYYCNSDPWGYYCVIPLYEYDYWGQGTQVTVSS | low polyreactivity
QVQLVESGGGLVQAGGSLRLSCAASGFIFQYNAMGWYRQAPGKERELVAAISKSGGRTYYADSVKGRFTISRDNPKNTVDLQMNSLKPEDTAVYYCAALYVWLWGYRFDYWGQGTQVTVSS | high polyreactivity
QVQLVESGGGLVQAGGSLRLSCAASGFIFQYYGMGWYRQAPGQVRELVAAIDSRGGSTYYADSVKGRFTISRDNAKNTVSLQMNSLKPADTAVYYCAAMGLYQGTLNHFYYWGQGTQVTVAS | low polyreactivity
QVQLVESGGGLVQAGGSLRLSCAASGFIFRAYAMGWYRQAPGKERELVAAITKRSGTTYYADSVKGRFTISRDNAKNTVYLQMHSLKPEDTAVYYCAARYYRDYRWYTYAYDYWGQGTQVTVSS | high polyreactivity
QVQLVESGGGLVQAGGSLRLSCAASGFIFRAYTKGWYRQAPGKERELVAAITSSGGRTNYADSVKGRFTISRDNAKNTVYLQMNSLKPEDTAVYYCATVYAKWKQFDYWGQGTQVTVSS | high polyreactivity
QVQLVESGGGLVQAGGSLRLSCAASGFIFRAYTMGWYRQAPGKERELVAAITSSGGRTYYADSVKGRFTISRDNAKNTVYLQMNSLKPEDTAVYYCATVYAKWKQFDYWGQGTQVTVSS | high polyreactivity
QVQLVESGGGLVQAGGSLRLSCAASGFIFRFNAMGWYRQAPGKEREMVAAISWRGGSTYYADSVKGRFTISRDNAKNTVYLQMNSLKPEDTAVYYCAADVTRYYRYGYNYWGQGSQVTVSS | high polyreactivity
QVQLVESGGGLVQAGGSLRLSCAASGFIFRFYAMGWYRQAPGKERELVAAISSDGSTNYADSVKGRFTISRDNAKNTVYLQMNSLKPEDTAVYYCNADYYEYYSGPTLVVYIYGYWGQGTQVTVSS | low polyreactivity
QVQLVESGGGLVQAGGSLRLSCAASGFIFRGYAMGWYRQAPGKERELVAAINYSGGSTYYADSVKGRFTISRDNAKNTVYLQMNSLKPEDTAVYYCAAGKRGDDDYWGQGTQVTVSS | high polyreactivity

Sequence | polyreactivity (PSR sort gate)
QVQLVESGGGLVQAGGSLRLSCAASGFIFRGYAMGWYRQAPGKERELVAAITSSGGDTYYADSVKGRFTISRDNAKNTVYLQMNSLKPEDTAVYYCNARVYASGTEGDYWGQGTQVTVSS | low polyreactivity
QVQLVESGGGLVQAGGSLRLSCAASGFIFRHYAMGWYRPAPGKERELVAAITSGGTTYYADSVKGRFTISRDNAKNTVYLQMNSLKPEDTAVYYCNTVYYRPGQDVDYWGQGTQVTVSS | high polyreactivity
QVQLVESGGGLVQAGGSLRLSCAASGFIFRLNAMGWYRQAPGKERELVAAISTYADSMKGRFTISRDNAKNTVYLQMNSLKPEDTAVYYCAKDYTDTYAYRTGFDYWGQGTQVTVSS | low polyreactivity
QVQLVESGGGLVQAGGSLRLSCAASGFIFRLYTMGGYRQAPGKERELVAAISWSGGRTYYADSVKGRFTISRDNAKNTVYLQMNSLKPEDTAVYYCAKDLYLHTYYAYPYRFGSGYYWGQGTQVTVSS | low polyreactivity
QVQLVESGGGLVQAGGSLRLSCAASGFIFRNYAMGWYRQAPGKERELVAAISRRAGSTYYADSVKGRFTISRDNAKNTVYLQMNSLKPEVTAVYYCAADSYWRYYPTKYDYWGQGTQVTVSS | high polyreactivity
QVQLVESGGGLVQAGGSLRLSCAASGFIFRQNAMGWYRQAPGKERELVAAISGSGGRTYYADSVKGRFTISRDTAKNTVYLQMNSLKPEDTAVYYCAAQYVTSRFDYWGQGTQVTVSS | high polyreactivity
QVQLVESGGGLVQAGGSLRLSCAASGFIFRQYAMGWYRQAPGKEMELVAAISSSGGRTYYADSVKGRFTISRDNAKNTVYLQMNSLKPEDTAVSYCNARAWLRVEYGEGYWGQGTQVTVSS | high polyreactivity
QVQLVESGGGLVQAGGSLRLSCAASGFIFRRNAMGWYRQAPGKEREFVAAITWSGGSTYYADSVKGRFTISRDNAKDTVYLQMNSLKPEDTAVYYCAATYSQYWYTKYLNSYPGYDYWGQGTQVTVSS | low polyreactivity
QVQLVESGGGLVQAGGSLRLSCAASGFIFRRNAMGWYRQAPGKEREFVAAITWSGGSTYYADSVKGRFTISRDNAKYTVYLQMNSLKPEDTAVYYCAATYSQYWYTKYLNSYPGYDYWGQGTQVTVSS | low polyreactivity
QVQLVESGGGLVQAGGSLRLSCAASGFIFRRYAMGWSRPAPGNERELVAAITWSGGSTYYADSVKGRFTISRDNAKNTVYLQMNSLKPEDTAVYYCAAVYRQSGDYYSRDYYWGQGTQVTVSS | high polyreactivity
QVQLVESGGGLVQAGGSLRLSCAASGFIFRSNAMGWYRQAPGKEREFVAAISSRGGSTTYADSVKGRFTISRDNAKNTVYLQMNSLKPEDTAVYYCARSLRRFVVAYDYWGQGTQVTVSS | high polyreactivity
QVQLVESGGGLVQAGGSLRLSCAASGFIFRSYDMGWYRQAPGKERELVARISSGGSTYYADSVKGRFTISRDNAKNTVYLQMNSLKPEDTAVYYCNSARPTAAYDYWGQGTQVTVSS | low polyreactivity
QVQLVESGGGLVQAGGSLRLSCAASGFIFRTNAMGWYRQAPGKERELVAAISRSGNTYYADSVKGRFTISRDNAKNTVYLQMNSLKPEDTAVYYCNAGWYGAYRWYRSDYWGQGTQVTVSS | high polyreactivity
QVQLVESGGGLVQAGGSLRLSCAASGFIFRTYAMGWYRQAPGKERELDATITGDGSTNYADSVKGRFTISRDNAKKTVYLQMNSLKPEDTAVYYGSRDVRLSGDYWGQGTQVTVSS | low polyreactivity
QVQLVESGGGLVQAGGSLRLSCAASGFIFRVYAMGWYRQAPGKERELVAAITRAGNTYYADSVKGRFTISRDNAKNTVYLQMNSLKPEDTAVYYCNNYHYWASPMNYWGQGTQVTVSS | high polyreactivity
QVQLVESGGGLVQAGGSLRLSCAASGFIFRVYAMGWYRQAPGKERELVATITYDGGRTYYADSVKGRFTISRDNAKNTVYLQMNSLKPEDTAVFGYWGQGTQVTVSS | low polyreactivity
